Target: T1, Human CD137 ECD (human)
T1 construct: entry includes C-terminal His-tag and biotin acceptor peptide; also called human CD137 extracellular domain; 4-1BB
Assay: Biacore SPR, vs parent H183/L072

T1 sequence (chain, as listed by the source limits assumed): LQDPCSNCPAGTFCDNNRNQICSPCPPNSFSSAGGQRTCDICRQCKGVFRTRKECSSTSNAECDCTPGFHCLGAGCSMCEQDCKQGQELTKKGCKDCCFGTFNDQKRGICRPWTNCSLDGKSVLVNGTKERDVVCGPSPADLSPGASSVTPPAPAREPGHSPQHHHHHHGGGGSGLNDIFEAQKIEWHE

fold change of affinity [fold]	Binder
0	H183/L072 VL G91N (antibody, name in Kabat numbering, V domains shown, Dual-Ig) VH: QVQLVESGGGLVQPGRSLRLSCAASGFTFSNAWMHWVRQAPGKGLEWVAQIKDKGNAYAAYYAPSVKGRFTISRDDSKNSIYLQMNSLKTEDTAVYYCHYVHYASASTVLPAFGVDAWGQGTTVTVSS VL: DIVMTQSPLSLPVTPGEPASISCQASQELVHMNRNTYLHWYQQKPGQAPRLLIYKVSNRFPGVPDRFSGSGSGTDFTLKISRVEAEDVGVYYCAQNTSVPFTFGQGTKLEIK
0.6	H183/L072 VL H27dR (antibody, name in Kabat numbering, V domains shown, Dual-Ig) VH: QVQLVESGGGLVQPGRSLRLSCAASGFTFSNAWMHWVRQAPGKGLEWVAQIKDKGNAYAAYYAPSVKGRFTISRDDSKNSIYLQMNSLKTEDTAVYYCHYVHYASASTVLPAFGVDAWGQGTTVTVSS VL: DIVMTQSPLSLPVTPGEPASISCQASQELVRMNRNTYLHWYQQKPGQAPRLLIYKVSNRFPGVPDRFSGSGSGTDFTLKISRVEAEDVGVYYCAQGTSVPFTFGQGTKLEIK
0	H183/L072 VL G91Q (antibody, name in Kabat numbering, V domains shown, Dual-Ig) VH: QVQLVESGGGLVQPGRSLRLSCAASGFTFSNAWMHWVRQAPGKGLEWVAQIKDKGNAYAAYYAPSVKGRFTISRDDSKNSIYLQMNSLKTEDTAVYYCHYVHYASASTVLPAFGVDAWGQGTTVTVSS VL: DIVMTQSPLSLPVTPGEPASISCQASQELVHMNRNTYLHWYQQKPGQAPRLLIYKVSNRFPGVPDRFSGSGSGTDFTLKISRVEAEDVGVYYCAQQTSVPFTFGQGTKLEIK
0	H183/L072 VL G91P (antibody, name in Kabat numbering, V domains shown, Dual-Ig) VH: QVQLVESGGGLVQPGRSLRLSCAASGFTFSNAWMHWVRQAPGKGLEWVAQIKDKGNAYAAYYAPSVKGRFTISRDDSKNSIYLQMNSLKTEDTAVYYCHYVHYASASTVLPAFGVDAWGQGTTVTVSS VL: DIVMTQSPLSLPVTPGEPASISCQASQELVHMNRNTYLHWYQQKPGQAPRLLIYKVSNRFPGVPDRFSGSGSGTDFTLKISRVEAEDVGVYYCAQPTSVPFTFGQGTKLEIK
0.6	H183/L072 VL H27dK (antibody, name in Kabat numbering, V domains shown, Dual-Ig) VH: QVQLVESGGGLVQPGRSLRLSCAASGFTFSNAWMHWVRQAPGKGLEWVAQIKDKGNAYAAYYAPSVKGRFTISRDDSKNSIYLQMNSLKTEDTAVYYCHYVHYASASTVLPAFGVDAWGQGTTVTVSS VL: DIVMTQSPLSLPVTPGEPASISCQASQELVKMNRNTYLHWYQQKPGQAPRLLIYKVSNRFPGVPDRFSGSGSGTDFTLKISRVEAEDVGVYYCAQGTSVPFTFGQGTKLEIK
0	H183/L072 VL G91W (antibody, name in Kabat numbering, V domains shown, Dual-Ig) VH: QVQLVESGGGLVQPGRSLRLSCAASGFTFSNAWMHWVRQAPGKGLEWVAQIKDKGNAYAAYYAPSVKGRFTISRDDSKNSIYLQMNSLKTEDTAVYYCHYVHYASASTVLPAFGVDAWGQGTTVTVSS VL: DIVMTQSPLSLPVTPGEPASISCQASQELVHMNRNTYLHWYQQKPGQAPRLLIYKVSNRFPGVPDRFSGSGSGTDFTLKISRVEAEDVGVYYCAQWTSVPFTFGQGTKLEIK
0.7	H183/L072 VL H27dA (antibody, name in Kabat numbering, V domains shown, Dual-Ig) VH: QVQLVESGGGLVQPGRSLRLSCAASGFTFSNAWMHWVRQAPGKGLEWVAQIKDKGNAYAAYYAPSVKGRFTISRDDSKNSIYLQMNSLKTEDTAVYYCHYVHYASASTVLPAFGVDAWGQGTTVTVSS VL: DIVMTQSPLSLPVTPGEPASISCQASQELVAMNRNTYLHWYQQKPGQAPRLLIYKVSNRFPGVPDRFSGSGSGTDFTLKISRVEAEDVGVYYCAQGTSVPFTFGQGTKLEIK
0.4	H183/L072 VL H27dF (antibody, name in Kabat numbering, V domains shown, Dual-Ig) VH: QVQLVESGGGLVQPGRSLRLSCAASGFTFSNAWMHWVRQAPGKGLEWVAQIKDKGNAYAAYYAPSVKGRFTISRDDSKNSIYLQMNSLKTEDTAVYYCHYVHYASASTVLPAFGVDAWGQGTTVTVSS VL: DIVMTQSPLSLPVTPGEPASISCQASQELVFMNRNTYLHWYQQKPGQAPRLLIYKVSNRFPGVPDRFSGSGSGTDFTLKISRVEAEDVGVYYCAQGTSVPFTFGQGTKLEIK
0.6	H183/L072 VL H27dL (antibody, name in Kabat numbering, V domains shown, Dual-Ig) VH: QVQLVESGGGLVQPGRSLRLSCAASGFTFSNAWMHWVRQAPGKGLEWVAQIKDKGNAYAAYYAPSVKGRFTISRDDSKNSIYLQMNSLKTEDTAVYYCHYVHYASASTVLPAFGVDAWGQGTTVTVSS VL: DIVMTQSPLSLPVTPGEPASISCQASQELVLMNRNTYLHWYQQKPGQAPRLLIYKVSNRFPGVPDRFSGSGSGTDFTLKISRVEAEDVGVYYCAQGTSVPFTFGQGTKLEIK
0.6	H183/L072 VL H27dE (antibody, name in Kabat numbering, V domains shown, Dual-Ig) VH: QVQLVESGGGLVQPGRSLRLSCAASGFTFSNAWMHWVRQAPGKGLEWVAQIKDKGNAYAAYYAPSVKGRFTISRDDSKNSIYLQMNSLKTEDTAVYYCHYVHYASASTVLPAFGVDAWGQGTTVTVSS VL: DIVMTQSPLSLPVTPGEPASISCQASQELVEMNRNTYLHWYQQKPGQAPRLLIYKVSNRFPGVPDRFSGSGSGTDFTLKISRVEAEDVGVYYCAQGTSVPFTFGQGTKLEIK
0	H183/L072 VL G91T (antibody, name in Kabat numbering, V domains shown, Dual-Ig) VH: QVQLVESGGGLVQPGRSLRLSCAASGFTFSNAWMHWVRQAPGKGLEWVAQIKDKGNAYAAYYAPSVKGRFTISRDDSKNSIYLQMNSLKTEDTAVYYCHYVHYASASTVLPAFGVDAWGQGTTVTVSS VL: DIVMTQSPLSLPVTPGEPASISCQASQELVHMNRNTYLHWYQQKPGQAPRLLIYKVSNRFPGVPDRFSGSGSGTDFTLKISRVEAEDVGVYYCAQTTSVPFTFGQGTKLEIK
0	H183/L072 VL G91V (antibody, name in Kabat numbering, V domains shown, Dual-Ig) VH: QVQLVESGGGLVQPGRSLRLSCAASGFTFSNAWMHWVRQAPGKGLEWVAQIKDKGNAYAAYYAPSVKGRFTISRDDSKNSIYLQMNSLKTEDTAVYYCHYVHYASASTVLPAFGVDAWGQGTTVTVSS VL: DIVMTQSPLSLPVTPGEPASISCQASQELVHMNRNTYLHWYQQKPGQAPRLLIYKVSNRFPGVPDRFSGSGSGTDFTLKISRVEAEDVGVYYCAQVTSVPFTFGQGTKLEIK
0	H183/L072 VL G91R (antibody, name in Kabat numbering, V domains shown, Dual-Ig) VH: QVQLVESGGGLVQPGRSLRLSCAASGFTFSNAWMHWVRQAPGKGLEWVAQIKDKGNAYAAYYAPSVKGRFTISRDDSKNSIYLQMNSLKTEDTAVYYCHYVHYASASTVLPAFGVDAWGQGTTVTVSS VL: DIVMTQSPLSLPVTPGEPASISCQASQELVHMNRNTYLHWYQQKPGQAPRLLIYKVSNRFPGVPDRFSGSGSGTDFTLKISRVEAEDVGVYYCAQRTSVPFTFGQGTKLEIK
0.8	H183/L072 VL H27dI (antibody, name in Kabat numbering, V domains shown, Dual-Ig) VH: QVQLVESGGGLVQPGRSLRLSCAASGFTFSNAWMHWVRQAPGKGLEWVAQIKDKGNAYAAYYAPSVKGRFTISRDDSKNSIYLQMNSLKTEDTAVYYCHYVHYASASTVLPAFGVDAWGQGTTVTVSS VL: DIVMTQSPLSLPVTPGEPASISCQASQELVIMNRNTYLHWYQQKPGQAPRLLIYKVSNRFPGVPDRFSGSGSGTDFTLKISRVEAEDVGVYYCAQGTSVPFTFGQGTKLEIK
0.5	H183/L072 VL H27dN (antibody, name in Kabat numbering, V domains shown, Dual-Ig) VH: QVQLVESGGGLVQPGRSLRLSCAASGFTFSNAWMHWVRQAPGKGLEWVAQIKDKGNAYAAYYAPSVKGRFTISRDDSKNSIYLQMNSLKTEDTAVYYCHYVHYASASTVLPAFGVDAWGQGTTVTVSS VL: DIVMTQSPLSLPVTPGEPASISCQASQELVNMNRNTYLHWYQQKPGQAPRLLIYKVSNRFPGVPDRFSGSGSGTDFTLKISRVEAEDVGVYYCAQGTSVPFTFGQGTKLEIK
0	H183/L072 VL G91S (antibody, name in Kabat numbering, V domains shown, Dual-Ig) VH: QVQLVESGGGLVQPGRSLRLSCAASGFTFSNAWMHWVRQAPGKGLEWVAQIKDKGNAYAAYYAPSVKGRFTISRDDSKNSIYLQMNSLKTEDTAVYYCHYVHYASASTVLPAFGVDAWGQGTTVTVSS VL: DIVMTQSPLSLPVTPGEPASISCQASQELVHMNRNTYLHWYQQKPGQAPRLLIYKVSNRFPGVPDRFSGSGSGTDFTLKISRVEAEDVGVYYCAQSTSVPFTFGQGTKLEIK
0.8	H183/L072 VL H27dP (antibody, name in Kabat numbering, V domains shown, Dual-Ig) VH: QVQLVESGGGLVQPGRSLRLSCAASGFTFSNAWMHWVRQAPGKGLEWVAQIKDKGNAYAAYYAPSVKGRFTISRDDSKNSIYLQMNSLKTEDTAVYYCHYVHYASASTVLPAFGVDAWGQGTTVTVSS VL: DIVMTQSPLSLPVTPGEPASISCQASQELVPMNRNTYLHWYQQKPGQAPRLLIYKVSNRFPGVPDRFSGSGSGTDFTLKISRVEAEDVGVYYCAQGTSVPFTFGQGTKLEIK
0.6	H183/L072 VL H27dM (antibody, name in Kabat numbering, V domains shown, Dual-Ig) VH: QVQLVESGGGLVQPGRSLRLSCAASGFTFSNAWMHWVRQAPGKGLEWVAQIKDKGNAYAAYYAPSVKGRFTISRDDSKNSIYLQMNSLKTEDTAVYYCHYVHYASASTVLPAFGVDAWGQGTTVTVSS VL: DIVMTQSPLSLPVTPGEPASISCQASQELVMMNRNTYLHWYQQKPGQAPRLLIYKVSNRFPGVPDRFSGSGSGTDFTLKISRVEAEDVGVYYCAQGTSVPFTFGQGTKLEIK
0.6	H183/L072 VL H27dQ (antibody, name in Kabat numbering, V domains shown, Dual-Ig) VH: QVQLVESGGGLVQPGRSLRLSCAASGFTFSNAWMHWVRQAPGKGLEWVAQIKDKGNAYAAYYAPSVKGRFTISRDDSKNSIYLQMNSLKTEDTAVYYCHYVHYASASTVLPAFGVDAWGQGTTVTVSS VL: DIVMTQSPLSLPVTPGEPASISCQASQELVQMNRNTYLHWYQQKPGQAPRLLIYKVSNRFPGVPDRFSGSGSGTDFTLKISRVEAEDVGVYYCAQGTSVPFTFGQGTKLEIK
0.3	H183/L072 VL H27dD (antibody, name in Kabat numbering, V domains shown, Dual-Ig) VH: QVQLVESGGGLVQPGRSLRLSCAASGFTFSNAWMHWVRQAPGKGLEWVAQIKDKGNAYAAYYAPSVKGRFTISRDDSKNSIYLQMNSLKTEDTAVYYCHYVHYASASTVLPAFGVDAWGQGTTVTVSS VL: DIVMTQSPLSLPVTPGEPASISCQASQELVDMNRNTYLHWYQQKPGQAPRLLIYKVSNRFPGVPDRFSGSGSGTDFTLKISRVEAEDVGVYYCAQGTSVPFTFGQGTKLEIK
0.6	H183/L072 VL H27dG (antibody, name in Kabat numbering, V domains shown, Dual-Ig) VH: QVQLVESGGGLVQPGRSLRLSCAASGFTFSNAWMHWVRQAPGKGLEWVAQIKDKGNAYAAYYAPSVKGRFTISRDDSKNSIYLQMNSLKTEDTAVYYCHYVHYASASTVLPAFGVDAWGQGTTVTVSS VL: DIVMTQSPLSLPVTPGEPASISCQASQELVGMNRNTYLHWYQQKPGQAPRLLIYKVSNRFPGVPDRFSGSGSGTDFTLKISRVEAEDVGVYYCAQGTSVPFTFGQGTKLEIK

From patent US20210388087A1 (Chugai, published 2021)
